{
  "source": "paper PMC5898196",
  "about": "(Science (New York, N.Y.), 2017)",
  "proteins": {"B1": {"name": "Recombinant full-length human TRPM4 (hTRPM4b) (natural protein)", "chain": "not shown", "modifications": "glycan at Asn992"}},
  "biological_target": "the molecule itself",
  "assay": "cryo-EM structure",
  "data": [
    {"protein": "B1", "values": [
      {"measurement": "stoichiometry N", "value": 4}
    ]}
  ]
}
